# Source: the supplement of paper PMC10567573
# B1: TSN (parent)
# chain: FVELQGFLAAEQDIREEIRKVVQS
# B2: CCND1 (parent)
# chain: IRRAYPDANLLNDRVLRAMLKAEE
# Variants of: B1
# Experiment: protein stability index of a GFP-peptide fusion (GPS, HEK-293T) (PSI 1-6); higher = more stable
# Details: c terminus: a fixed tail appended
# 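Also: lentivirally expressed fusions sorted by FACS into six bins by GFP to DsRed ratio, PSI derived from sequencing read proportions per bin multiplied by bin number.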
row,Variant,protein stability index
1,FVELQGFLAAEQDIREEIRKVGQS,1.55
2,FVELQGFLAAEQDIREEIRKVIQS,3.83
3,FVELQGFLAAEQDIREEIRKVQQS,4.66
4,FVELQGFLAAEQDIREEIRKVLQS,1.97
5,FVELQGFLAAEQDIREEIRKVFQS,2.67
6,FVELQGFLAAEQDIREEIRKVPQS,3.2
7,FVELQGFLAAEQDIREEIRKVRQS,1.7
8,FVELQGFLAAEQDIREEIRKVCQS,3
9,FVELQGFLAAEQDIREEIRKVHQS,2.65
10,FVELQGFLAAEQDIREEIRKVMQS,1.42
11,FVELQGFLAAEQDIREEIRKVKQS,1.62
12,FVELQGFLAAEQDIREEIRKVEQS,2.23
13,FVELQGFLAAEQDIREEIRKVWQS,2.27
14,FVELQGFLAAEQDIREEIRKKVQS,1.79
15,FVELQGFLAAEQDIREEIRKWVQS,2.27
16,FVELQGFLAAEQDIREEIRKDVQS,2.52
17,FVELQGFLAAEQDIREEIRKYVQS,1.68
18,FVELQGFLAAEQDIREEIRKPVQS,2.51
19,FVELQGFLAAEQDIREEIRKIVQS,3.69
20,FVELQGFLAAEQDIREEIRKNVQS,2.47
21,FVELQGFLAAEQDIREEIRKAVQS,1.29
22,FVELQGFLAAEQDIREEIRKQVQS,2.13

row,Variant,protein stability index
1,FVELQGFLAAEQDIREEIRKGVQS,1.69
2,FVELQGFLAAEQDIREEIRKSVQS,1.45
3,FVELQGFLAAEQDIREEIRKMVQS,1.21
4,FVELQGFLAAEQDIREEIRKEVQS,1.55
5,FVELQGFLAAEQDIREEIRKTVQS,3.32
6,FVELQGFLAAEQDIREEIRKVVQQ,1.97
7,FVELQGFLAAEQDIREEIRKVVQG,2.37
8,FVELQGFLAAEQDIREEIRKVVQL,3.92
9,FVELQGFLAAEQDIREEIRKVVQE,1.72
10,FVELQGFLAAEQDIREEIRKVVQK,1.42
11,FVELQGFLAAEQDIREEIRKVVDS,3.47
12,FVELQGFLAAEQDIREEIRKVVLS,1.92
13,FVELQGFLAAEQDIREEIRKVVWS,1.65
14,FVELQGFLAAEQDIREEIRKVVIS,1.25
15,FVELQGFLAAEQDIREEIRKVVTS,2.38
16,FVELQGFLAAEQDIREEIRKVVCS,3.33
17,FVELQGFLAAEQDIREEIRKVVFS,2.61
18,FVELQGFLAAEQDIREEIRKVVMS,1.98
19,FVELQGFLAAEQDIREEIRRVVQS,1.99
20,FVELQGFLAAEQDIREEIRTVVQS,1.89
21,FVELQGFLAAEQDIREEIRYVVQS,2.21
22,FVELQGFLAAEQDIREEIRSVVQS,1.96

# Variants of: B2
# Experiment: as above
# Details: c terminus: a fixed tail appended
row,Variant,protein stability index
1,IRRAYPHANLLNDRVLRAMLKAEE,2.14
2,IRRAYPSANLLNDRVLRAMLKAEE,2.43
3,IRRAYPYANLLNDRVLRAMLKAEE,2.13
4,IRRAYPAANLLNDRVLRAMLKAEE,1.83
5,IRRAYPWANLLNDRVLRAMLKAEE,2.36
6,IRRAYPEANLLNDRVLRAMLKAEE,2.06
7,IRRAYPFANLLNDRVLRAMLKAEE,1.65
8,IRRAYPKANLLNDRVLRAMLKAEE,2.1
9,IRRAYPTANLLNDRVLRAMLKAEE,2.23
10,IRRAYPPANLLNDRVLRAMLKAEE,2.09
11,IRRAYPNANLLNDRVLRAMLKAEE,3.11
12,IRRAYPLANLLNDRVLRAMLKAEE,1.84
13,IRRAYPDANLFNDRVLRAMLKAEE,1.75
14,IRRAYPDANLCNDRVLRAMLKAEE,2.69
15,IRRAYPDANLGNDRVLRAMLKAEE,2.84
16,IRRAYPDANLDNDRVLRAMLKAEE,4.19
17,IRRAYPDANLENDRVLRAMLKAEE,3.58
18,IRRAYPDAVLLNDRVLRAMLKAEE,2.26
19,IRRAYPDASLLNDRVLRAMLKAEE,2.44
20,IRRAYPDAILLNDRVLRAMLKAEE,2.36
21,IRRAYPDATLLNDRVLRAMLKAEE,2.63
22,IRRAYPDAALLNDRVLRAMLKAEE,2.34
23,IRRAYPDADLLNDRVLRAMLKAEE,2.3
24,IRRAYPDAGLLNDRVLRAMLKAEE,2.34

row,Variant,protein stability index
1,IRRAYPDAELLNDRVLRAMLKAEE,3.04
2,IRRAYPDAYLLNDRVLRAMLKAEE,2.11
3,IRRAYPDAFLLNDRVLRAMLKAEE,1.71
4,IRRAYPDARLLNDRVLRAMLKAEE,2.06
5,IRRAYPDHNLLNDRVLRAMLKAEE,2.28
6,IRRAYPDNNLLNDRVLRAMLKAEE,3.46
7,IRRAYPDCNLLNDRVLRAMLKAEE,2.78
8,IRRAYPDVNLLNDRVLRAMLKAEE,3.02
9,IRRAYPDRNLLNDRVLRAMLKAEE,3.16
10,IRRAYPDTNLLNDRVLRAMLKAEE,2.61
11,IRRAYPDLNLLNDRVLRAMLKAEE,2.04
12,IRRAYPDMNLLNDRVLRAMLKAEE,2.85
13,IRRAYPDYNLLNDRVLRAMLKAEE,2.4
14,IRRAYPDSNLLNDRVLRAMLKAEE,2.81
15,IRRAYPDFNLLNDRVLRAMLKAEE,2.54
16,IRRAYPDINLLNDRVLRAMLKAEE,2.02
17,IRRAYPDKNLLNDRVLRAMLKAEE,2.53
18,IRRAYPDPNLLNDRVLRAMLKAEE,3.03
19,IDRAYPDANLLNDRVLRAMLKAEE,4.09
20,IMRAYPDANLLNDRVLRAMLKAEE,3.37
21,IWRAYPDANLLNDRVLRAMLKAEE,3.61
22,IKRAYPDANLLNDRVLRAMLKAEE,2.87
23,ITRAYPDANLLNDRVLRAMLKAEE,2.92
24,IPRAYPDANLLNDRVLRAMLKAEE,3.68

row,Variant,protein stability index
1,IQRAYPDANLLNDRVLRAMLKAEE,3.03
2,INRAYPDANLLNDRVLRAMLKAEE,2.84
3,IYRAYPDANLLNDRVLRAMLKAEE,1.6
4,ILRAYPDANLLNDRVLRAMLKAEE,2.39
5,IERAYPDANLLNDRVLRAMLKAEE,3.49
6,IIRAYPDANLLNDRVLRAMLKAEE,2.4
7,IARAYPDANLLNDRVLRAMLKAEE,3.82
8,ICRAYPDANLLNDRVLRAMLKAEE,2.25
9,IFRAYPDANLLNDRVLRAMLKAEE,1.94
10,IHRAYPDANLLNDRVLRAMLKAEE,2.08
11,IRRAHPDANLLNDRVLRAMLKAEE,2.02
12,IRRALPDANLLNDRVLRAMLKAEE,3.07
13,IRRANPDANLLNDRVLRAMLKAEE,2.43
14,IRRAAPDANLLNDRVLRAMLKAEE,3.33
15,IRRAGPDANLLNDRVLRAMLKAEE,2.14
16,IRRAEPDANLLNDRVLRAMLKAEE,2.51
17,IRRACPDANLLNDRVLRAMLKAEE,2.9
18,IRRATPDANLLNDRVLRAMLKAEE,3.49
19,IRRAKPDANLLNDRVLRAMLKAEE,3.3
20,IRRADPDANLLNDRVLRAMLKAEE,1.54
21,IRRAPPDANLLNDRVLRAMLKAEE,3.69
22,IRRARPDANLLNDRVLRAMLKAEE,2.53
23,IRRAWPDANLLNDRVLRAMLKAEE,2.13
24,IRRVYPDANLLNDRVLRAMLKAEE,1.79

row,Variant,protein stability index
1,IRRTYPDANLLNDRVLRAMLKAEE,2.12
2,IRRLYPDANLLNDRVLRAMLKAEE,1.84
3,IRREYPDANLLNDRVLRAMLKAEE,2.04
4,IRRRYPDANLLNDRVLRAMLKAEE,2.37
5,IRRFYPDANLLNDRVLRAMLKAEE,1.4
6,IRRKYPDANLLNDRVLRAMLKAEE,2.3
7,IRRCYPDANLLNDRVLRAMLKAEE,2.17
8,IRRMYPDANLLNDRVLRAMLKAEE,2.58
9,IRRYYPDANLLNDRVLRAMLKAEE,2.68
10,IRRNYPDANLLNDRVLRAMLKAEE,2.59
11,IRRIYPDANLLNDRVLRAMLKAEE,2.4
12,IRRWYPDANLLNDRVLRAMLKAEE,3.03
13,IRRQYPDANLLNDRVLRAMLKAEE,2.37
14,IRRPYPDANLLNDRVLRAMLKAEE,3.12
15,IRRHYPDANLLNDRVLRAMLKAEE,2.4
16,ARRAYPDANLLNDRVLRAMLKAEE,2.77
17,HRRAYPDANLLNDRVLRAMLKAEE,3.25
18,NRRAYPDANLLNDRVLRAMLKAEE,3.69
19,SRRAYPDANLLNDRVLRAMLKAEE,3.94
20,KRRAYPDANLLNDRVLRAMLKAEE,2.99
21,PRRAYPDANLLNDRVLRAMLKAEE,3.34
22,LRRAYPDANLLNDRVLRAMLKAEE,2.5
23,QRRAYPDANLLNDRVLRAMLKAEE,3.45
24,WRRAYPDANLLNDRVLRAMLKAEE,2.32

row,Variant,protein stability index
1,RRRAYPDANLLNDRVLRAMLKAEE,2.21
2,CRRAYPDANLLNDRVLRAMLKAEE,2.41
3,VRRAYPDANLLNDRVLRAMLKAEE,2.69
4,TRRAYPDANLLNDRVLRAMLKAEE,2.27
5,IRTAYPDANLLNDRVLRAMLKAEE,3.17
6,IRWAYPDANLLNDRVLRAMLKAEE,1.99
7,IREAYPDANLLNDRVLRAMLKAEE,3.72
8,IRNAYPDANLLNDRVLRAMLKAEE,2.66
9,IRKAYPDANLLNDRVLRAMLKAEE,2.84
10,IRYAYPDANLLNDRVLRAMLKAEE,2.05
11,IRIAYPDANLLNDRVLRAMLKAEE,1.13
12,IRDAYPDANLLNDRVLRAMLKAEE,4.23
13,IRVAYPDANLLNDRVLRAMLKAEE,1.54
14,IRQAYPDANLLNDRVLRAMLKAEE,3.62
15,IRGAYPDANLLNDRVLRAMLKAEE,3.44
16,IRHAYPDANLLNDRVLRAMLKAEE,2.92
17,IRPAYPDANLLNDRVLRAMLKAEE,2.71
18,IRAAYPDANLLNDRVLRAMLKAEE,2.86
19,IRFAYPDANLLNDRVLRAMLKAEE,1.87
20,IRMAYPDANLLNDRVLRAMLKAEE,2.35
21,IRRAYLDANLLNDRVLRAMLKAEE,2.42
22,IRRAYIDANLLNDRVLRAMLKAEE,2.21
23,IRRAYFDANLLNDRVLRAMLKAEE,2.4
24,IRRAYADANLLNDRVLRAMLKAEE,1.75

row,Variant,protein stability index
1,IRRAYYDANLLNDRVLRAMLKAEE,1.63
2,IRRAYTDANLLNDRVLRAMLKAEE,1.88
3,IRRAYRDANLLNDRVLRAMLKAEE,2.35
4,IRRAYGDANLLNDRVLRAMLKAEE,2.13
5,IRRAYDDANLLNDRVLRAMLKAEE,1.43
6,IRRAYVDANLLNDRVLRAMLKAEE,3.38
7,IRRAYEDANLLNDRVLRAMLKAEE,2.14
8,IRRAYMDANLLNDRVLRAMLKAEE,2.99
9,IRRAYSDANLLNDRVLRAMLKAEE,3.19
10,IRRAYPDANILNDRVLRAMLKAEE,1.22
11,IRRAYPDANPLNDRVLRAMLKAEE,2.63
12,IRRAYPDANQLNDRVLRAMLKAEE,3.38
13,IRRAYPDANFLNDRVLRAMLKAEE,2.52
14,IRRAYPDANTLNDRVLRAMLKAEE,3.13
15,IRRAYPDANHLNDRVLRAMLKAEE,2.94
16,IRRAYPDANSLNDRVLRAMLKAEE,2.14
17,IRRAYPDANNLNDRVLRAMLKAEE,3.58
18,IRRAYPDANDLNDRVLRAMLKAEE,3.97
19,IRRAYPDANALNDRVLRAMLKAEE,2.48
20,IRRAYPDANRLNDRVLRAMLKAEE,3.08
21,IRRAYPDANWLNDRVLRAMLKAEE,2.02
22,IRRAYPDANKLNDRVLRAMLKAEE,3.23
23,IRRAYPDANYLNDRVLRAMLKAEE,3.34
24,IRRAYPDANVLNDRVLRAMLKAEE,2.49
